Assay: soluble on expression in E. coli; label from the status in PepcDB or PDB records

Sequence | soluble on expression in E. coli
MKPIDRFSYLKNNRVSQDTSSLVQCYLPIIGQEALSLYLYTISFWDNGRKEYLFSSILNHLNFGMDRLIKSLKILSAFNLLTLYQKGDVYQLALHAPLSSQDFLGHPVYRRLLEKKIGDVAVEDLKVESADGEEIPVSLNQVFPELAELGSQEDLGLKKKVANDFDLEHFRQLMARDGLRFADEQSDVLNLFAIAEEKKWTWFETYQLAKSTAVSQVISTKRMREKIAQKPVSSDFSLKEATIIKEAKSKTALQFLAEIKQTRKGTITQTERELLQQMAGLGLLDEVINIILLLTFNKVDSANINEKYAMKVANDYAYQKIHSAEEAVLRIRDRGQKAKTQKQNQTAPEKTNVPKWSNPEYKNETSEETRLELERKKQELLARLEKG | soluble
MKPIQLPLSVRLRDDATFANYYPGANAAALGYVERLCEAEAGWAESLIYLWGHDGVGRSHLLQAACLRFEQFEERTIYLPMADLVQYGPEIFDDLEQCELVCIDDLDVLVGKREWEEGLFHLFNRLRDTGRRLLLAASKSPRELQVKLPDLKSRLTMALIFQLHGLSDEDKLRALQLRASRRGLHLTDEVGRFILNRGSRSMNSLFDLLEQLDRASLQAQRKLTIPFLKETLGWLEHHHHHH | soluble
MKPPSSIQTSEFDSSDEEPIEDEQTPIHISWLSLSRVNCSQFLGLCALPGCKFKDVRRNVQKDTEELKSCGIQDIFVFCTRGELSKYRVPNLLDLYQQCGIITHHHPIADGGTPDIASCCEIMEELTTCLKNYRKTLIHSYGGLGRSCLVAACLLLYLSDTISPEQAIDSLRDLRGSGAIQTIKQYNYLHEFRDKLAAHLSSRDSQSRSVSR | soluble
MKPTNKAQDDDAVFALSTEVNHKLDLHQSSAEALRLAGVYTRQSCVLDLYHGYRSDDEDTEPDEEDGRLQTVREYHENGMLKLMRTFVRRLRRDATDPTAESSYYDRVVEEKHYDPSGICRVDMHFALGQPYLYRKHYYPNNRLKSEKVFFVEDEETMRARKVGHWRTYYENGNIQSEIIYNKDGVRCGFCKRYAIDGAIEWVKDYTREQEERLQAFNAKRGNLDLTVTDAARVLGLEGDWCSHVVNRTFRSKCAPLHPDWRRTAGDKAGETWEEEQRTEAFIRLSRAREVLLKFLETHPRECSCERGGA | not soluble
MKPTTISLLQKYKQEKKRFATITAYDYSFAKLFADEGLNVMLVGDSLGMTVQGHDSTLPVTVADIAYHTAAVRRGAPNCLLLADLPFMAYATPEQAFENAATVMRAGANMVKIEGGEWLVETVQMLTERAVPVCGHLGLTPQSVNIFGGYKVQGRGDEAGDQLLSDALALEAAGAQLLVLECVPVELAKRITEALAIPVIGIGAGNVTDGQILVMHDAFGITGGHIPKFAKNFLAETGDIRAAVRQYMAEVESGVYPGEEHSFH | soluble
MKQAIVYWKTLKAGILTESDEGYSFAYDKDYLTMPEAQGISLTMPLREEPFQSNMLHPFFDGLIPEGWLLDIAQKNWKIDSRDRMALLLACCRDCIGAVSIEPLNTTEDDE | not soluble
MKQGTVKWFNAEKGFGFIEVEGENDVFVHFSAINQDGYKSLEEGQAVEFEVVEGDRGPQAANVVKL | not soluble
MKQKIWYTYDDIHRVIKALAEKIRNADIKYDAMIAIGGGGFIPARMLRCFLEIPIYAVTTAYYDSDNEGQVTEEVKKVQWLDPVPEALRGKNVLVVDEVDDSRVTMEFCLKELLKEDFGTIGVAVLHEKIKAKAGKIPEGIPYFSGITVEDWWINYPWDALDIDEHNRLAEAGRG | not soluble
MKQLTILGSTGSIGNSTLSVVRANPELFKVTALVAGRNVREMAQQCLEFSPRYAAMSDEHSAKSLRLLLAEQGSDTEVYSGETAACELAALDDVDQVMAAIVGIAGLPSTLAAIRAGKQVLLANKESLITCGKLFMDEVKRSRAQLLPIDSEHNAIFQSLPERIQRQLGYSSLNENGVSRIILTGSGGPFRETPLSQFSDVTPDQACAHPNWSMGRKISVDSATMMNKGLEYIEARWLFNASAEQIEVVLHPQSVIHSMVRYHDGSILAQMGTPDMRTPIAHAMAYPMRVSSGVAPLDFCKVGALTFTTPDYQRYPCLKLAIDACNAGQAATTALNAANEISVMAFLDSKIRFTDIEVINRTVVEGLLLSEPTSVEEVLVIDRKARDVAAQVIAKLNN | not soluble
MKQLYATIRFNGYEEAADKGDLAVHKLVAAALDDAEASLKDLFAQQIFGDGTGNSGKDLTGLKAYVDDGTAVAVYGGIDRATNPWWKANVKKSANNKVLDIKQMREVFAKCSRGGMENKPDFIVTDLNTWLQYAELVDGKTTIQQPLGKVAEEFANLGFAQLSFMGIPVVYDEYCPAYTMYFINSNTFQLYGKPGRMFTTSEIVKIPDEDSKVGQIFFAGEFVGTEPRANGRLDLTVS | not soluble
MKQQEVRQRAFAMPLTSPAFPPGPYRFVNREYMIITYRTDPAAIEAVLPEPLQMAEPVVRYEFIRMPDSTGFGDYSESGQVIPVTFRGERGSYTLAMFLDDQPPLAGGRELWGFPKKAGKPRLEVHQDTLVGSLDFGPVRIATGTMGYKYEALDRSALLASLAEPNFLLKIIPHVDGSPRICELVRYHTTDVAIKGAWSAPGSLELHPHALAPVAALPVLEVLSARHFVCDLTLDLGTVVFDYLRQ | soluble
MKRGIIIIEDKKVSVTGNEVWMTATEIAGLFRAGVPAVNAAIKAVRKSDVLNDYEVCRYMRLENGLHADVYALEIIIPIAFRLNTYCTHVFRRWLVEKALAKEKQQAYVMLIHKANGYC | not soluble
MKRIGILTSGGDAPGMNAAVRAVTRVAIANGLEVFGIRYGFAGLVAGDIFPLESEDVAHLINVSGTFLYSARYPEFAEEEGQLAGIEQLKKHGIDAVVVIGGDGSYHGALQLTRHGFNSIGLPGTIDNDIPYTDATIGYDTACMTAMDAIDKIRDTASSHHRVFIVNVMGRNCGDIAMRVGVACGADAIVIPERPYDVEEIANRLKQAQESGKDHGLVVVAEGVMTADQFMAELKKYGDFDVRANVLGHMQRGGTPTVSDRVLASKLGSEAVHLLLEGKGGLAVGIENGKVTSHDILDLFDESHRGDYDLLKLNADLSR | soluble
MKRIPIKELIVEHPGKVLILDGGQGTELENRGININSPVWSAAPFTSESFWEPSSQERKVVEEMYRDFMIAGANILMTITYQANFQSISENTSIKTLAAYKRFLDKIVSFTREFIGEERYLIGSIGPWAAHVSCEYTGDYGPHPENIDYYGFFKPQLENFNQNRDIDLIGFETIPNFHELKAILSWDEDIISKPFYIGLSVDDNSLLRDGTTLEEISVHIKGLGNKINKNLLLMGVNCVSFNQSALILKMLHEHLPGMPLLVYPNSGEIYNPKEKTWHRPTNKLDDWETTVKKFVDNGARIIGGCCRTSPKDIAEIASAVDKYS | soluble
MKRKFLIASHGNLAKGFQSSLDILADKGKELAVINAYVTPEDYTPIIQTFLQSLGAEEQAIILTDLYGGSVNQKIVQEVMTTKPDNVFIISNANLAIALSLIFLKEGEKLTKEDIQAAIAEAQIQFVELNPSNEEENFF | not soluble
MKRLLLSAAILSSMALFNVNAQELKTSADMKGSFKKNVVLEVFTAEWCGYCPGGKERIAKAIEMLDDEYKERVFQTFVHYNDGISKKWPRVGQLFIALDQTLGIPGFPTFSVCRMEKKGENLSIGAPIAIKNKIMKGFGDGTAPAEVNLKLTKGATPEDVCTATFTGKVDADLIGKPLMLTAYVLKNNMKPINPQNGAGDGYLHQHTVLMILSTDVKGDALNIAADGSFTIKKEFKLDGFEIKDTDVLAFVHHPMSNAENHSIINAGQESLDKAEPTATEQIVATPSVKAYVQNGKIVVEEEYSKMEVFNATGQLVKNESLVPGVYVVRITANGVMYFLKVLVP | not soluble
MKRLSPEVFKVPIDRIRNGYYSDIYFINYVKVLKRDSRHPRVYYQFFPRKDAVICGIDEALAILKFCTGYYKDEEKARELFEEILKLDKEMQAASVEMDVQKILELTQKKWDLRLKLNDLWVDKWDEIEVHALYDGEEAKEGEPIMTIEGDPTYFGYLETVLLGVIARATSTATAVKKVVKAARGKPVLFFSARFDHYWVQATDGYAALKAGAFGVSTDANADYWGVKSMGTMPHALIACYDGKTEDAAIAFDRHMEEDVNRIVLVDWDNDVIGTTFRVIEKFYEYVMKKPFKLGVTDPSPIIGPGKNKIWGVRFDTSGNLRDKSVVPKDESSFGVCPELVWRARQEFDKVGLRDLKIVVSGGFDEKKIDLFERLGVPADAYGVGSRLLREKVDITADIVEVNGRHCAKVGRYKIENPRLKKVGKRYWEEE | soluble
MKRLTAKEEEIMGFFWEKGPLFVKEILAFYDEPRPHFNTLSTIVRGLEEKGFLAHHTYGNTYQYYAVVSESDFSKRTLKSVISKYFNNSYLSAVSSLVKEEDISLDDLKKLIQEVEQKNEE | soluble
MKRMLFIFVSSFLLIALAACAQGKETKSELDYDQTKKMIVDILKTDQGKKAIQDVLTDEKMKQALILDETVVKKTIEDAMVSDKGQQFWEKLFKDPEFSSKFAKSMGKEQTQLMKTLLKDPEYQAGVIEIMKNPEVEKMMLQTMKSKEYRQYLQQVLTETAESPLFQAKMIDIISKGVQKAEKGGSGKKEAGGDGGSQGEKKEEQ | not soluble
MKRSSVFSFLVAFLLVAGCSHKMDNKTVAGDVSAKTVQTAPVTTEPAPEKEEPKQEPAPVVEEKPAVESGTIIASIYFDFDKYEIKESDQETLDEIVQKAKENHMQVLLEGNTDEFGSSEYNQALGVKRTLSVKNALVIKGVEKDMIKTISFGETKPKCAQKTRECYKENRRVDVKLMK | not soluble
MKRTIFLLMSILLLLTACGDGHKQTSSDKEQSEHKDNHNKNQVKQIATDKKVQGDNYRTILPFKESQARGLLQDNMANGYNGEDFESGLLELSKEIFPTNKYLYQDGQYLDKKTINAYLDPKYTKKEIDKMSEKEKKSKNANENLGLNPSHNGETDEEKIAKNSPAYLSNILEQDFYGNSDSKGKNIKGMTIGLAMNSVYYYKKEKDGETFSKDLSDKEIEKQGKQMASEMLSRLRENSDLKDIPIHFAIYKQSSQDSITPGEFIVGTTVEEGKTKINSWDNINEKAALIPSSTAADYDETLNNNFKQFNDNLQSYFSNFTQAVGKVKFVNKKAKQLTVDLPIDYYGQAETIGITQYVTEQAEKYFDKLDEYEIRIKDGNTPRALISKTKDDKEPQVHIYHN | not soluble
MKSHCNKMVGGELKPIIAALLPVEPFYPTQVPFVLSRYIYDVADRQQSSLDYVAVSALCALAAVIGNPHCS | not soluble
MKSIVEKLNLTKYQQLVILNRPQGEYLSEFASAAQQLPSEPVELIFAFVKTMAEFQEIVSMVIEGQHLVENGLLYVAYPKKGNKMYPTFVHRDEIFPTLQVNEADGYIKGSTLKFNRMVSLDETFTVVGMKNVLKKLAKNQTSSAVGDYVQYLPEIEALVQTEPAAAATFAALTPGYQKEWARYVFSAKRAETRKKRQTEMLVILKEGYKTKALYQQRKK | not soluble
MKSMQDYRTIMTGNDAVAYGAKLARVKLISAYPITPQTTIVEKLASMIANDELDAKYVKVESEHSALATVVSSELAGVRSYTATSSHGLLYMHEMLHWASGQRLPIVMSVVNRAIGPPWNIWADQSDTMNQKDTGWMQVYCESNQEALDTIIMGYKIAENKDVLLPLMSMEDAFILSHTSEPVTIRDQESVNEYLPDLDLPFKINEEHPMGYGSYDTPDGSFMELKKDMVDSMQKAKRIIEDETRKFNEMFGTEYGGLIEKYRMEDADYAIIATGTIASTARYVVDILRKKGEKVGLIRIRYFRPFPYEEILSSLKYVKAAGVIDRSVSFSSGGPTYVEIVQGLYGKLNVPLSSFIAGIGGRDVRIQDIENIYEMLKSGNSGTYWINVKEVR | not soluble
MKSMVEMQREVDEYIGQFKTGYFSPLANLARLTEEVGELAREINHTYGEKKKKDSEEANTIKAELGDNLFVLLCLANSMGIDMTESFNETMEKFNTRDKNRFERKLEHHHHHH | soluble
